According to paper PMC11417369, “DNA sequence and chromatin differentiate sequence-specific transcription factor binding in the human malaria parasite Plasmodium falciparum”:
Positions count from the first letter of the chain named.

T1: PF3D7_0420300 D1 (Plasmodium falciparum, UniProt Q8I1N6 1956-2015)
T1 sequence: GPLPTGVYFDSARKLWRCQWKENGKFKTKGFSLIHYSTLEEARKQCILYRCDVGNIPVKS

T2: AP2-LT D1 (Plasmodium falciparum, UniProt Q8IAM1 2520-2577)
T2 sequence: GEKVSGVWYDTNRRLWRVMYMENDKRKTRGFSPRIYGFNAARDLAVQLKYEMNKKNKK

T3: AP2-HC D1 (Plasmodium falciparum, UniProt Q8IKR9 1316-1374)
T3 sequence: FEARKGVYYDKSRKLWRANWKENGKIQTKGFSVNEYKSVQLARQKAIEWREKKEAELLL

B1: CACACA_negctrl_site593 (dsDNA)
DNA 1: TAATTTTTGTAAACAGTCATGGATTCAAAAAAAAAA
DNA 2: TTTTTTTTTTGAATCCATGACTGTTTACAAAAATTA
B2: CACACA_negctrl_site917 (dsDNA)
DNA 1: ATTTCTATAAAAATAATCTACATTTTTTTTTTTTTT
DNA 2: AAAAAAAAAAAAAATGTAGATTATTTTTATAGAAAT
B3: CACACA_negctrl_site1225 (dsDNA)
DNA 1: ATTTTTTTTTTTTTTTTTTATATGCTCTCCATGAGA
DNA 2: TCTCATGGAGAGCATATAAAAAAAAAAAAAAAAAAT
B4: CACACA_negctrl_site196 (dsDNA)
DNA 1: TTTTTAAATATATAATAGAATTGATTGTATTATATA
DNA 2: TATATAATACAATCAATTCTATTATATATTTAAAAA
B5: CACACA_negctrl_site149 (dsDNA)
DNA 1: TCTTATTCAAACGTAAAACGAAGAAGAAAAAAAAAA
DNA 2: TTTTTTTTTTCTTCTTCGTTTTACGTTTGAATAAGA
B6: CACACA_negctrl_site1463 (dsDNA)
DNA 1: TGTTTCTGCTCTGGACATTTTTAAAAAAGGGAAAGC
DNA 2: GCTTTCCCTTTTTTAAAAATGTCCAGAGCAGAAACA
B7: CACACA_negctrl_site12 (dsDNA)
DNA 1: TTCTTCTAATCCTTTTATCTCATTAAAAAAATATAA
DNA 2: TTATATTTTTTTAATGAGATAAAAGGATTAGAAGAA
B8: CACACA_negctrl_site1507 (dsDNA)
DNA 1: TCTTTAAATCGAGTGTTAAATAATATAATATAAAAA
DNA 2: TTTTTATATTATATTATTTAACACTCGATTTAAAGA
B9: CACACA_negctrl_site189 (dsDNA)
DNA 1: AAGTTTATTATATATAAATTATTATATATATATATA
DNA 2: TATATATATATATAATAATTTATATATAATAAACTT
B10: CACACA_negctrl_site676 (dsDNA)
DNA 1: TATTTATTGTGATACTTATATTACTTAATGATTAAA
DNA 2: TTTAATCATTAAGTAATATAAGTATCACAATAAATA
B11: CACACA_negctrl_site1587 (dsDNA)
DNA 1: TTATAATATAAAAATAAATAAATAAATAAATAAATA
DNA 2: TATTTATTTATTTATTTATTTATTTTTATATTATAA
B12: CACACA_site8115 (dsDNA)
DNA 1: AGAAAATACACGCATACACACACACCCACCCACATA
DNA 2: TATGTGGGTGGGTGTGTGTGTATGCGTGTATTTTCT
B13: CACACA_negctrl_site1047 (dsDNA)
DNA 1: TTCACATGAAGAATTAAAATAAAACTAGGAAATTAA
DNA 2: TTAATTTCCTAGTTTTATTTTAATTCTTCATGTGAA
B14: CACACA_site8688 (dsDNA)
DNA 1: AAAACACGCGGACACACACACACACCCACCCATATA
DNA 2: TATATGGGTGGGTGTGTGTGTGTGTCCGCGTGTTTT
B15: CACACA_site5303 (dsDNA)
DNA 1: CCCCCCCACGGACACACACACATACATACCACATAT
DNA 2: ATATGTGGTATGTATGTGTGTGTGTCCGTGGGGGGG
B16: CACACA_site2302 (dsDNA)
DNA 1: GACATATTCCCCCCCACACACACACCCACATACATA
DNA 2: TATGTATGTGGGTGTGTGTGTGGGGGGGAATATGTC
B17: CACACA_site4111 (dsDNA)
DNA 1: CCCCCCGTGTTATATACACACATAATCAAATAAAAT
DNA 2: ATTTTATTTGATTATGTGTGTATATAACACGGGGGG
B18: CACACA_site1716 (dsDNA)
DNA 1: GGGGGGGGAGGGTGAATACACACGTAATAATCATAA
DNA 2: TTATGATTATTACGTGTGTATTCACCCTCCCCCCCC
B19: CACACA_site6304 (dsDNA)
DNA 1: CACACGCACGAACACACACACACACGCGCACATATA
DNA 2: TATATGTGCGCGTGTGTGTGTGTGTTCGTGCGTGTG
B20: CACACA_site8058 (dsDNA)
DNA 1: AACATACATAAACACACACACACACCCACACCCACA
DNA 2: TGTGGGTGTGGGTGTGTGTGTGTGTTTATGTATGTT
B21: CACACA_site6310 (dsDNA)
DNA 1: ATACATCAAGGACACACACACACACGCACACGCACA
DNA 2: TGTGCGTGTGCGTGTGTGTGTGTGTCCTTGATGTAT
B22: CACACA_site5283 (dsDNA)
DNA 1: AATATAAATAAAAACACACACACACCGATATATATA
DNA 2: TATATATATCGGTGTGTGTGTGTTTTTATTTATATT
B23: CACACA_site4405 (dsDNA)
DNA 1: TATATATATCTGTACACACACACATATAAATAAATA
DNA 2: TATTTATTTATATGTGTGTGTGTACAGATATATATA
B24: CACACA_site3848 (dsDNA)
DNA 1: ATAAAACAAAAACACACACACATACACAAAAAAAAA
DNA 2: TTTTTTTTTGTGTATGTGTGTGTGTTTTTGTTTTAT
B25: CACACA_site2826 (dsDNA)
DNA 1: AGATATAAGAAAAGCACACACACACCCAAAAAAAAA
DNA 2: TTTTTTTTTGGGTGTGTGTGTGCTTTTCTTATATCT
B26: CACACA_site1515 (dsDNA)
DNA 1: AGTACAGACATAGACACACACACACCCATAAAAAAA
DNA 2: TTTTTTTATGGGTGTGTGTGTGTCTATGTCTGTACT
B27: CACACA_site2623 (dsDNA)
DNA 1: TAATAAATAAATGACACACACACACCCAAAAAAAAA
DNA 2: TTTTTTTTTGGGTGTGTGTGTGTCATTTATTTATTA
B28: CACACA_site6254 (dsDNA)
DNA 1: TATTTATTAAGACACACACACACACGCACAAAATAA
DNA 2: TTATTTTGTGCGTGTGTGTGTGTGTCTTAATAAATA
B29: CACACA_site8849 (dsDNA)
DNA 1: AAAAAAAAAAAACACACACACACACCGATACATACA
DNA 2: TGTATGTATCGGTGTGTGTGTGTGTTTTTTTTTTTT
B30: CACACA_site8824 (dsDNA)
DNA 1: GATAATTATGGACACACACACACACCCACAACTAAA
DNA 2: TTTAGTTGTGGGTGTGTGTGTGTGTCCATAATTATC
B31: CACACA_site6387 (dsDNA)
DNA 1: TTAACAAATAGACACACACACACACGCAAAAAAAAA
DNA 2: TTTTTTTTTGCGTGTGTGTGTGTGTCTATTTGTTAA
B32: CACACA_site6551 (dsDNA)
DNA 1: ATAAAAAGGAGACACACACACACACGCATATTTATA
DNA 2: TATAAATATGCGTGTGTGTGTGTGTCTCCTTTTTAT
B33: CACACA_site7288 (dsDNA)
DNA 1: AAAAAAAAAAAAAACACACACACACGCACATATACA
DNA 2: TGTATATGTGCGTGTGTGTGTGTTTTTTTTTTTTTT
B34: CACACA_site372 (dsDNA)
DNA 1: AAGCATACATCAAGCACACACACACCCACACCCACA
DNA 2: TGTGGGTGTGGGTGTGTGTGTGCTTGATGTATGCTT
B35: CACACA_site4441 (dsDNA)
DNA 1: CAAATACCCGGACACACACACACAAAAAAAAAAAAA
DNA 2: TTTTTTTTTTTTTGTGTGTGTGTGTCCGGGTATTTG
B36: CACACA_site4435 (dsDNA)
DNA 1: TACACAGACGGACACACACACACACTAGAAAAAAAA
DNA 2: TTTTTTTTCTAGTGTGTGTGTGTGTCCGTCTGTGTA
B37: CACACA_site904 (dsDNA)
DNA 1: B32 DNA 1 with G11A, G26C, T32A
DNA 2: B32 DNA 2 with A5T, C11G, C26T
B38: CACACA_site903 (dsDNA)
DNA 1: CCATAAAAAGGATACACACACACACCCACATATATA
DNA 2: TATATATGTGGGTGTGTGTGTGTATCCTTTTTATGG

Legend:
Assay in all cases: gcPBM; about 25 ug protein; PBS, 1% milk, 0.2 mg/ml BSA, salmon testes DNA, 0.03% Triton X-100
Settings in all cases: tags: N-terminal GST (pGEX-4T-1), kept; label: surface-attached array probe
PF3D7_0420300 D1 = molecular target: T1, PF3D7_0420300 D1
AP2-LT D1 = molecular target: T2, AP2-LT D1
AP2-HC D1 = molecular target: T3, AP2-HC D1

Binder	binding signal (PF3D7_0420300 D1)	binding signal (AP2-LT D1)	binding signal (AP2-HC D1)
B1	8.81 ln median PBM intensity, better of two orientations	8.58 ln median PBM intensity, better of two orientations	
B2	8.83 ln median PBM intensity, better of two orientations	8.54 ln median PBM intensity, better of two orientations	
B3	8.86 ln median PBM intensity, better of two orientations	8.79 ln median PBM intensity, better of two orientations	
B4	8.88 ln median PBM intensity, better of two orientations	8.6 ln median PBM intensity, better of two orientations	
B5	8.92 ln median PBM intensity, better of two orientations	8.7 ln median PBM intensity, better of two orientations	
B6	8.94 ln median PBM intensity, better of two orientations	8.66 ln median PBM intensity, better of two orientations	
B7	8.97 ln median PBM intensity, better of two orientations	8.51 ln median PBM intensity, better of two orientations	
B8	9 ln median PBM intensity, better of two orientations	8.73 ln median PBM intensity, better of two orientations	
B9	9.02 ln median PBM intensity, better of two orientations	8.75 ln median PBM intensity, better of two orientations	
B10	9.03 ln median PBM intensity, better of two orientations	8.81 ln median PBM intensity, better of two orientations	
B11	9.04 ln median PBM intensity, better of two orientations	8.74 ln median PBM intensity, better of two orientations	
B12	10.6 ln median PBM intensity, better of two orientations	10.7 ln median PBM intensity, better of two orientations	
B13	9.06 ln median PBM intensity, better of two orientations	8.81 ln median PBM intensity, better of two orientations	
B14	10.6 ln median PBM intensity, better of two orientations	10.7 ln median PBM intensity, better of two orientations	
B15	11 ln median PBM intensity, better of two orientations	11.2 ln median PBM intensity, better of two orientations	
B16	10.9 ln median PBM intensity, better of two orientations	10.9 ln median PBM intensity, better of two orientations	
B17	10.8 ln median PBM intensity, better of two orientations	10.8 ln median PBM intensity, better of two orientations	
B18	10.5 ln median PBM intensity, better of two orientations	10 ln median PBM intensity, better of two orientations	
B19	10.4 ln median PBM intensity, better of two orientations	10.7 ln median PBM intensity, better of two orientations	

Binder	binding signal (PF3D7_0420300 D1)	binding signal (AP2-LT D1)	binding signal (AP2-HC D1)
B20	10.4 ln median PBM intensity, better of two orientations	10.6 ln median PBM intensity, better of two orientations	
B21	10.4 ln median PBM intensity, better of two orientations	10.6 ln median PBM intensity, better of two orientations	
B22	10.3 ln median PBM intensity, better of two orientations	10.3 ln median PBM intensity, better of two orientations	
B23	10 ln median PBM intensity, better of two orientations	10.1 ln median PBM intensity, better of two orientations	
B24			12.2 ln median PBM intensity, better of two orientations
B25			12.1 ln median PBM intensity, better of two orientations
B26			12.1 ln median PBM intensity, better of two orientations
B27			12.1 ln median PBM intensity, better of two orientations
B28			12.1 ln median PBM intensity, better of two orientations
B29			12 ln median PBM intensity, better of two orientations
B30			12 ln median PBM intensity, better of two orientations
B31			12 ln median PBM intensity, better of two orientations
B32			12 ln median PBM intensity, better of two orientations
B33			11.9 ln median PBM intensity, better of two orientations
B34			11.9 ln median PBM intensity, better of two orientations
B35			11.9 ln median PBM intensity, better of two orientations
B36			11.9 ln median PBM intensity, better of two orientations
B37			11.9 ln median PBM intensity, better of two orientations
B38			11.9 ln median PBM intensity, better of two orientations
